# Laboratory results from patent US8304236B2, “Modified biotin-binding protein” (Japan Tobacco Inc., priority 2008, dated 2012).
# Columns and labels:
# human serum protein = assay: Non-specific adsorption of serum protein to HALU TM2-immobilized magnetic beads; assay type: binding; details: human serum diluted 800 times, anti-human IgG detection
# Description: In this Example, non-specific adsorption of serum protein to HALU TM2-immobilized magnetic beads was investigated.
# TM2 D40NR104E and TM2 D40NR104EK141E were bonded covalently to magnetic beads (Dynabeads M-270 Carboxylic Acid, Dynal) by the process described in paragraph 1-9) of Example 1, and the amount of human serum protein adsorbed to the beads was measured. The amount of each HALU TM2 immobilized to the magnetic beads was adjusted to 10 μg/100 μL beads. Human serum (CHEMICON) was diluted 800 times with a PBS buffer, and the HALU TM2-immobilized magnetic beads (50 μL) to which a certain amount of protein was immobilized were added to the diluted human serum, followed by mixing by turning the tube containing the beads upside down at room temperature for 15 minutes. The magnetic beads were washed with a PBS buffer containing 0.1% Tween 20 (PBST, 500 μL) four times and were then subjected to antigen-antibody reaction at room temperature for 15 minutes with HRP-labeled anti-human IgG mouse antibody (100 μL) diluted 5000 times with PBST containing 0.5% BSA. Subsequently, the beads were washed with PBST (500 μL) five times, followed by color development with 1-Step Ultra TMB-ELISA (100 μL). After termination of the color development with 2M sulfuric acid (100 μL), the magnetic beads were collected with a magnet. The absorbance at 450 nm of the supernatant was measured with an Infinite 200 microplate reader.
# [1] = Heat stability of protein structure (soluble protein after heating, SDS-PAGE); assay type: physicochemical; details: heated for 20 minutes
# Description: 3-8) Heat Stability of HALU TM2 Protein Structure Each of 0.2 μg/μL TM2 mutant solutions (10 μL (2 μg)) was heated at room temperature, 50, 60, 70, 80, 90, or 99° C. for 20 minutes. Then, the solution was centrifuged at 15000 rpm for 10 minutes, and the soluble protein in the supernatant was suspended in the same volume of 2×SDS sample buffer (250 mM Tris-HCl, pH 6.8, 20% 2-mercaptoethanol, 20% SDS, 20% glycerol). The suspension was heated at 95° C. for 10 minutes, followed by SDS-PAGE. The protein bands were detected by CBB staining A standard curve was prepared using a quantitative marker (LMW ELECTROPHORESIS CALIBRATION KIT; Pharmacia Biotech) with Las-3000 (FUJIFILM) to quantify the protein bands.
# [2] = Isoelectric focusing electrophoresis (pI observed); assay type: physicochemical; details: pH 3 to 10 gel
# Description: The isoelectric point of each low-pI TM2 was measured by isoelectric focusing electrophoresis using an XCell SureLock Mini-Cell (Invitrogen). In accordance with the instruction, each low-pI TM2 (500 ng) and an IEF sample buffer (pH 3 to 10 (2×), Invitrogen) were mixed and were added to a polyacrylamide gel (pH 3 to 10, IEF Gel, Invitrogen) at a pH ranging from 3 to 10, followed by electrophoresis at a variable voltage of 100 V for 1 hour, 200 V for 1 hour, and 500 V for 45 minutes in this order.
# After the electrophoresis, the gel was shaken in a blotting buffer (0.7% acetic acid) for 10 minutes and then was transferred onto a PVDF membrane at 10 V for 1 hour using an XCell ll Blot Module (Invitrogen). The PVDF membrane was subjected to reaction with anti-TM2 rabbit antibody (PCT/W2006/326260) serving as a primary antibody and with alkaline phosphate-labeled anti-rabbit IgG antibody (BIO-RAD) serving as a secondary antibody, followed by detection of bands with Alkaline Phosphatase Substrate Kit II
# The isoelectric point of the high-affinity TM2 was measured by isoelectric focusing electrophoresis using an XCell SureLock Mini-Cell (Invitrogen). […] The electric point of TM2 D40N having replacement of the […] amino acid was higher than that of the wild type TM2 also in the isoelectric focusing electrophoresis.
# The isoelectric point of HALU TM2 was measured by isoelectric focusing electrophoresis using an XCell SureLock Mini-Cell (Invitrogen). In accordance with the instruction, bands of each HALU TM2 (4 μg) were detected by CBB staining. […] The observed isoelectric point of TM2 D40N was 9.7, and was reduced to 8.9 after introduction of mutation of R104E and was reduced to 7.3 to 7.5 after further introduction of mutation of K141E.
# [3] = Biotin-binding test (Biacore 3000, biotin-LC-BSA immobilized); details: Biotin-BSA (22.4 Å)
# Description: High-purity BSA (Sigma, 2 mg) and NHS-LC-biotin (Pierce, 1 mg) were dissolved in 50 mM sodium borate (pH 8.0, 1 mL) and were incubated at 4° C. for 2 hours. The solution was put into a dialysis tube (MWCO 6-8,000) and was dialyzed with 50 mM sodium carbonate (pH 6.7) at 4° C. overnight. The resulting biotin-LC-BSA conjugate (MW: 67 kDa, 30 μM) was used as a ligand for a Biacore (registered trademark) biosensor.
# Biotin-LC-BSA and BSA serving as a negative control were immobilized on CM5 sensor chips by amine coupling method. The amount for immobilization was adjusted to about 200 RU. The chips to which BSA was immobilized were disposed in flow cells 1 and 3, while the chips to which biotin-LC-BSA was immobilized were disposed in flow cells 2 and 4.
# Accordingly, seven step measurement (3.125, 6.25, […], 25, 50, 100, and 200 nM) was conducted from the lowest concentration, without recycling steps. The data of BSA as reference was deducted from the data of BSA-LC-biotin. The measurement was performed at 25° C. The resulting sensorgrams were subjected to reaction kinetics analysis using analysis software BIAevaluation ver. 4.1 with a 1:1 binding model to calculate the binding rate constant (ka) and the dissociation rate constant (kd). The dissociation constant (KD) was determined from kd/ka. In the case where no recycling step is employed, the Rmax (maximum amount of binding analyte) decreases at each measurement. Accordingly, in the analysis, the Rmax was calculated by conducting local fitting for each concentration, and only the data of analyte concentrations that were approximated to the 1:1 binding model was employed.
# TM2 and HALU TM2 used as analytes were prepared by purification with 2-iminobiotin agarose in accordance with a common method and dialysis with 20MM KPi (pH 7) overnight. The analytes were each adjusted to about 50 μg/mL in 10 mM acetate buffer (pH 5, Biacore).
# The immobilization of the ligand and measurement and analysis of specific interaction with the analytes were conducted as in paragraph 2-7-2).
molecule,measurement,setting,value
"TM2 D40NR104E: TM2 mutant having mutation of D40N and R104E; SEQ ID NO: 22 (protein, Synthetic TM2 D40NR104E) MSDVQSSLTGTWYNELNSKMELTANKDGTLTGKYLSKVGNVYVPYPLSGRYNLQPPAGQGVALGWAVSWENSKIHSATTWSGQFFSESSPVILTQWLLSSSTAEGDVWESTLVGNDSFTKTAPTEQQIAHAQLHCRAPRLK",Non-specific binding to serum protein (A450),human serum protein,low
same,Non-specific binding to serum protein (A450),human serum protein; listed as D40NR104E,0.56
same,Thermal stability (temp. at which 50% of protein was lost),[1],78 °C
same,pI observed,[2],8.9
same,ka,[3],1.4 × 10^6
same,kd,[3]; values in parentheses,(2.9 × 10^−9)
